The target in assay [1] is T1, Human His-tagged Sortilin (R&D Systems) (human, UniProt Q99523 78-755).
T1 construct: Bought protein; also called His-captured Sortilin (SORT1); Histidine-tagged human Sortilin
Briefly: ELISA, biotinylated Progranulin on plate-immobilized Sortilin. For orientation: In an ELISA, binding on a coated surface is turned into a signal by an enzyme label.
Method: (§1) Briefly, human or mouse Sortilin (R&D Systems) was immobilized overnight on an ELISA plate (2 μg/ml in PBS). The plates were washed in wash buffer (PBS+0.05% TWEEN20) and blocked for one hour at 37° C. with binding buffer (PBS+1% BSA). […] Plates were washed thrice in wash buffer and incubated with Streptavidin-HRP (1:200 in binding buffer, R&D Systems) for 20 min. Plates were washed thrice again and incubated with TMB substrate solution until color developed. The reaction was stopped by adding 50 ul of 2N sulfuric acid and color was quantified using a Biotek Synergy H1 plate reader. Data was analyzed and fitted in Prism.

The target of assay [2] is T1, Human His-tagged Sortilin (R&D Systems). The experiment in a line: Biacore SPR, Sortilin captured by anti-His antibody on CM5 chip, Progranulin flowed over.
From the text: Briefly, Sortilin was captured on a CM5 sensor chip that was immobilized with an anti-His antibody (kit from GE). Progranulin was flowed over in HBS binding buffer at various concentrations. Fitting of sensorgrams for affinity estimations was done using BIAevaluation version 3.1.
Assay [3] deals with T2, mouse Sortilin (R&D Systems), recombinant (mouse, UniProt Q6PHU5 74-754, limits assumed).
T2 construct: Bought protein; also called mouse SORT1
The experiment in a line: ELISA, biotinylated Progranulin on plate-immobilized Sortilin.
Method: as §1

For assay [4], the target named is T3, human Sortilin expressed on HEK293T cells (human, UniProt Q99523 78-830).
T3 construct: also called hSort; HEK293T+ hSort
Briefly: flow cytometry titration on HEK293T cells expressing human Sortilin, 4 C, apparent KD.

Assay [5] addresses T4, mouse Sortilin expressed on HEK293T cells (mouse, UniProt Q6PHU5 74-825).
T4 construct: also called msSort; mSort
Briefly: flow cytometry titration on HEK293T cells expressing mouse Sortilin, 4 C, apparent KD. In general terms: In flow cytometry, cells or beads pass a laser one at a time.

B1: recombinant human Progranulin (Adipogen) (ligand, UniProt P28799 18-593, looked up)
chain: TRCPDGQFCPVACCLDPGGASYSCCRPLLDKWPTTLSRHLGGPCQVDAHCSAGHSCIFTVSGTSSCCPFPEAVACGDGHHCCPRGFHCSADGRSCFQRSGNNSVGAIQCPDSQFECPDFSTCCVMVDGSWGCCPMPQASCCEDRVHCCPHGAFCDLVHTRCITPTGTHPLAKKLPAQRTNRAVALSSSVMCPDARSRCPDGSTCCELPSGKYGCCPMPNATCCSDHLHCCPQDTVCDLIQSKCLSKENATTDLLTKLPAHTVGDVKCDMEVSCPDGYTCCRLQSGAWGCCPFTQAVCCEDHIHCCPAGFTCDTQKGTCEQGPHQVPWMEKAPAHLSLPDPQALKRDVPCDNVSSCPSSDTCCQLTSGEWGCCPIPEAVCCSDHQHCCPQGYTCVAEGQCQRGSEIVAGLEKMPARRASLSHPRDIGCDQHTSCPVGQTCCPSLGGSWACCQLPHAVCCEDRQHCCPAGYTCNVKARSCEKEVVSAQPATFLARSPHVGVKDVECGEGHFCHDNQTCCRDNRQGWACCPYRQGVCCADRRHCCPAGFRCAARGTKCLRREAPRWDAPLRDPALRQLL
notes: Used unlabelled, biotinylated (NHS-PEG4 or Sulfo-NHS) or labelled with DyLight 650, as the assay says; also called PGRN; hPGRN
For the molecule B1, the Kd in assay [1] turned out to be 14 nM; in assay [2], 14.3 nM.

B2: recombinant mouse Progranulin (Adipogen) (ligand, UniProt P28798 18-589, looked up)
chain: TQCPDGQFCPVACCLDQGGANYSCCNPLLDTWPRITSHHLDGSCQTHGHCPAGYSCLLTVSGTSSCCPFSKGVSCGDGYHCCPQGFHCSADGKSCFQMSDNPLGAVQCPGSQFECPDSATCCIMVDGSWGCCPMPQASCCEDRVHCCPHGASCDLVHTRCVSPTGTHTLLKKFPAQKTNRAVSLPFSVVCPDAKTQCPDDSTCCELPTGKYGCCPMPNAICCSDHLHCCPQDTVCDLIQSKCLSKNYTTDLLTKLPGYPVKEVKCDMEVSCPEGYTCCRLNTGAWGCCPFAKAVCCEDHIHCCPAGFQCHTEKGTCEMGILQVPWMKKVIAPLRLPDPQILKSDTPCDDFTRCPTNNTCCKLNSGDWGCCPIPEAVCCSDNQHCCPQGFTCLAQGYCQKGDTMVAGLEKIPARQTTPLQIGDIGCDQHTSCPVGQTCCPSLKGSWACCQLPHAVCCEDRQHCCPAGYTCNVKARTCEKDVDFIQPPVLLTLGPKVGNVECGEGHFCHDNQTCCKDSAGVWACCPYLKGVCCRDGRHCCPGGFHCSARGTKCLRKKIPRWDMFLRDPVPRPLL
notes: Used biotinylated; also called mPGRN; mouse PGRN
Take B2: the Kd in assay [3] worked out at 40 nM.

B3: anti-Sortilin antibody S-22-7 (antibody, V domains shown)
VH: QVQLVQSGAEVKKPGSSVKVSCKASGGTFSSYAISWVRQAPGQGLEWMGGIIPGFGRANYAQKFQGRVTITADESTSTAYMELSSLRSEDTAVYYCARQGRKTGYYYYYGMDVWGQGTTVTVSS
VL: DIQMTQSPSTLSASVGDRVTITCRASQSISSWLAWYQQKPGKAPKLLIYKASSLESGVPSRFSGSGSGTEFTLTISSLQPDDFATYYCQQADGHITFGGGTKVEIK
Regarding B3, the Kd in assay [4] came to 2.05 nM.

B4: anti-Sortilin antibody S-15-6-12 (antibody, V domains shown)
VH: QVQLVQSGAEVKKPGASVKVSCKASGYTFTSRYMSWVRQAPGQGLEWMGIINPVGGSTSYAQKFQGRVTMTRDTSTSTVYMELSSLRSEDTAVYYCARDPSGIALAGPGSPYYRGMDVWGQGTTVTVSS
VL: EIVMTQSPATLSVSPGERATLSCRASQSVSSNLAWYQQKPGQAPRLLIYGASTRATGIPARFSGSGSGTEFTLTISSLQSEDFAVYYCQQARLGPWTFGGGTKVEIK
As for B4, the Kd in assay [4] worked out at 3.84 nM; in assay [5] it was 6.62 nM.

B5: anti-Sortilin antibody S-15-10-12 (antibody, V domains shown)
VH: QVQLVQSGAEVKKPGASVKVSCKASGYTFTKYYMSWVRQAPGQGLEWMGIINPIGGSTSYAQKFQGRVTMTRDTSTSTVYMELSSLRSEDTAVYYCARDPSGIAAAFPAGRYYYGMDVWGQGTTVTVSS
VL: EIVMTQSPATLSVSPGERATLSCRASQSVSSNLAWYQQKPGQAPRLLIYGASTRATGIPARFSGSGSGTEFTLTISSLQSEDFAVYYCQQARLGPWTFGGGTKVEIK
For the molecule B5, the Kd in assay [4] stood at 4.3 nM; in assay [5], 8.89 nM.

The record behind these values is US20190085084A1 (published 2019).
